# Measured values: the supplement of paper PMC10567573
# B1: C9orf25 (parent)
# chain: LARKGSLKNGSMGSPVNQQPKKNN
# Variants of: B1
# Experiment: protein stability index of a GFP-peptide fusion (GPS, HEK-293T) (PSI 1-6); higher = more stable
# Details: c terminus: a fixed tail appended
# 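Further: lentivirally expressed fusions sorted by FACS into six bins by GFP to DsRed ratio, PSI derived from sequencing read proportions per bin multiplied by bin number.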
row,Variant,protein stability index
1,M12C,4.58
2,M12V,4.98
3,M12G,4.49
4,M12T,4.74
5,M12P,4.84
6,M12W,4.11
7,M12F,4.56
8,M12N,4.43
9,M12Q,4.4
10,M12K,5.15
11,M12I,4.42
12,M12R,4.7
13,M12L,4.44
14,M12Y,4.4
15,M12S,4.94
16,M12A,4.42
17,M12D,5.06
18,M12E,5.29
19,M12H,4.42
20,S11G,5.27
21,S11W,4.45
22,S11L,4.19
23,S11N,4.88
24,S11D,4.8

row,Variant,protein stability index
1,S11A,4.44
2,S11T,4.81
3,S11Y,4.35
4,S11P,4.67
5,S11C,4.5
6,S11E,4.96
7,S11R,4.61
8,S11I,4.41
9,S11V,4.71
10,S11K,4.7
11,S11M,4.22
12,S11H,4.15
13,S11F,4.15
14,S11Q,4.29
15,K22N,4.43
16,K22Y,3.81
17,K22Q,4.82
18,K22V,3.17
19,K22L,3.81
20,K22H,4.02
21,K22E,5.05
22,K22A,4.51
23,K22G,4.54
24,K22I,3.8

row,Variant,protein stability index
1,K22C,4.49
2,K22R,4.37
3,K22D,4.21
4,K22S,4.41
5,K22W,3.9
6,K22F,3.56
7,K22T,4.28
8,K22P,4.42
9,K22M,4.49
10,L7F,4.2
11,L7R,4.14
12,L7K,5.32
13,L7I,4.56
14,L7P,4.71
15,L7Y,4.17
16,L7S,4.83
17,L7Q,5.04
18,L7H,4.76
19,L7N,4.55
20,L7T,4.71
21,L7V,3.39
22,L7A,4.51
23,L7C,5.02
24,L7M,4.66

row,Variant,protein stability index
1,L7D,4.01
2,L7G,4.57
3,L7W,3.97
4,L7E,3.63
5,N9M,4.18
6,N9F,4.21
7,N9E,5.29
8,N9Y,4.64
9,N9G,4.74
10,N9C,4.46
11,N9L,3.67
12,N9R,4.43
13,N9Q,4.92
14,N9A,4.6
15,N9K,4.17
16,N9D,5.27
17,N9H,4.63
18,N9S,4.94
19,N9I,4.64
20,N9W,3.21
21,N9P,4.36
22,N9V,4.42
23,N9T,4.78
24,V16I,4.79

row,Variant,protein stability index
1,V16M,4.62
2,V16P,4.89
3,V16N,4.4
4,V16H,5.1
5,V16R,4.69
6,V16Q,5
7,V16C,4.23
8,V16A,4.69
9,V16Y,3.87
10,V16G,4.75
11,V16T,4.75
12,V16D,4.85
13,V16W,4.01
14,V16F,3.91
15,V16L,4.64
16,V16E,5.39
17,V16S,4.68
18,V16K,4.14
19,Q19Y,4.58
20,Q19G,5.02
21,Q19F,4.5
22,Q19E,4.73
23,Q19L,4.67
24,Q19K,4.22

row,Variant,protein stability index
1,Q19W,3.79
2,Q19C,4.68
3,Q19V,4.86
4,Q19S,4.89
5,Q19T,4.74
6,Q19M,4.74
7,Q19H,4.69
8,Q19N,4.72
9,Q19R,4.45
10,Q19I,4.85
11,Q19A,4.92
12,Q19P,4.39
13,Q19D,4.78
14,K8G,5
15,K8R,4.57
16,K8I,4.76
17,K8Q,4.84
18,K8F,4.42
19,K8M,4.45
20,K8Y,4.11
21,K8S,4.73
22,K8T,4.53
23,K8C,4.32
24,K8H,4.7

row,Variant,protein stability index
1,K8E,4.29
2,K8P,4.71
3,K8L,4.12
4,K8N,5.17
5,K8D,4.2
6,K8W,4.1
7,K8A,4.55
8,K8V,4.43
9,Q18H,4.82
10,Q18T,5.01
11,Q18W,3.67
12,Q18R,4
13,Q18S,4.97
14,Q18Y,4.17
15,Q18G,4.37
16,Q18A,4.74
17,Q18E,5.18
18,Q18L,4.32
19,Q18P,4.55
20,Q18C,4.6
21,Q18V,4.64
22,Q18D,5.17
23,Q18I,4.52
24,Q18F,4.4

row,Variant,protein stability index
1,Q18M,4.64
2,Q18N,4.59
3,Q18K,5.08
4,P20C,4.54
5,P20K,4.36
6,P20V,5.07
7,P20R,4.25
8,P20T,3.92
9,P20E,4.59
10,P20F,4.03
11,P20D,5.23
12,P20G,4.5
13,P20S,4.34
14,P20Y,4.32
15,P20N,4.67
16,P20M,4.56
17,P20A,4.54
18,P20W,4.1
19,P20Q,4.72
20,P20I,4.65
21,P20H,3.98
22,P20L,4.11
23,N23C,4.68
24,N23G,4.66

row,Variant,protein stability index
1,N23P,5.24
2,N23D,5.02
3,N23E,4.68
4,N23I,4.61
5,N23H,4.91
6,N23K,4.61
7,N23A,4.63
8,N23M,3.73
9,N23F,4.19
10,N23L,4.04
11,N17V,4.6
12,N17L,4.64
13,N17P,4.95
14,N17E,5.07
15,N17W,3.62
16,N17R,4.47
17,N17K,4.47
18,N17D,5.12
19,N17M,4.83
20,N17T,3.98
21,N17C,4.53
22,N17Q,4.74
23,N17A,4.25
24,N17Y,4.27

row,Variant,protein stability index
1,N17H,5.11
2,N17G,4.27
3,N17S,4.54
4,N17I,4.72
5,N17F,4.31
6,S14E,4.75
7,S14T,4.42
8,S14L,4.5
9,S14Q,4.74
10,S14G,4.8
11,S14F,4.3
12,S14D,4.96
13,S14A,4.73
14,S14P,5.02
15,S14I,4.62
16,S14N,4.81
17,S14C,4.06
18,S14R,4.23
19,S14M,4.97
20,S14W,4.13
21,S14Y,4.25
22,S14H,4.96
23,S14K,4.83
24,S14V,4.77

row,Variant,protein stability index
1,G10A,4.83
2,G10I,4.76
3,G10C,4.33
4,G10L,4.65
5,G10W,3.89
6,G10R,4.12
7,G10N,4.99
8,G10E,5.04
9,G10K,4.35
10,G10V,4
11,G10D,4.61
12,G10H,4.67
13,G10S,4.14
14,G10Y,4.35
15,G10Q,4.34
16,G10F,4.25
17,G10T,4.81
18,G10P,4.86
19,G10M,4.85
20,K21A,4.7
21,K21S,4.3
22,K21G,4.25
23,K21H,4.9
24,K21E,4.87

row,Variant,protein stability index
1,K21L,4.25
2,K21Q,4.48
3,K21W,2.95
4,K21N,4.65
5,K21D,5.25
6,K21R,4.82
7,K21P,4.18
8,K21T,4.39
9,K21F,4.07
10,K21Y,4
11,K21V,4.32
12,K21M,4.21
13,K21C,3.98
14,K21I,4.28
15,G13D,4.64
16,G13M,4.44
17,G13S,3.98
18,G13T,4.79
19,G13I,4.72
20,G13N,4.97
21,G13R,4.36
22,G13C,5.04
23,G13W,3.66
24,G13L,4.92

row,Variant,protein stability index
1,G13E,5.23
2,G13V,4.69
3,G13H,4.58
4,G13Q,4.99
5,G13F,4.06
6,G13K,4.28
7,G13Y,4.44
8,G13P,4.33
9,G13A,4.79
10,S6D,5.1
11,S6P,4.59
12,S6H,4.43
13,S6L,4.12
14,S6T,4.76
15,S6K,4.37
16,S6G,4.64
17,S6M,4.38
18,S6C,4.05
19,S6F,4.36
20,S6Y,4.89
21,S6Q,4.76
22,S6V,4.29
23,S6N,4.69
24,S6I,4.72

row,Variant,protein stability index
1,S6R,3.99
2,S6W,4.23
3,S6E,5.15
4,P15Y,4.4
5,P15M,4.66
6,P15H,4.24
7,P15G,5
8,P15K,4.34
9,P15N,4.42
10,P15I,4.66
11,P15E,4.53
12,P15S,4.26
13,P15F,4.2
14,P15C,4.48
15,P15A,4.42
16,P15V,4.62
17,P15Q,5.26
18,P15T,4.95
19,P15R,3.8
20,P15L,4.59
21,P15D,5.45
22,P15W,4.27
